# Test results published in patent US20120034160A1 (AbbVie / Abbott, published 2012).
# T1: Recombinant Human IL-17 (human, UniProt Q16552 20-155, limits assumed)
# T1 sequence (looked up): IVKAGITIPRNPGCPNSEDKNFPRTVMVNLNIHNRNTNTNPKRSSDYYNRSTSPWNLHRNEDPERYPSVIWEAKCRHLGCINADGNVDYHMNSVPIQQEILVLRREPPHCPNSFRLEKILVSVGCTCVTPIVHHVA
# Columns and labels:
# Recombinant Human IL-1β [1] = target: T2, Recombinant Human IL-1β (human, UniProt P01584 117-269); assay: Biacore SPR; N-terminal VD
# T2 construct: bought reagent; also called IL-1B
# Method in brief: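 First, goat anti-mouse IgG was immobilized on a CM5 chip by amine coupling. Next, test antibody or DVD-Ig (25 μg/ml) was captured. Then antigen at 10−200 nM flowed over at 25 μl/min, 25° C. Finally, association and dissociation phases were globally fitted to a 1:1 model.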
# Recombinant Human IL-17 = target: T1, Recombinant Human IL-17; assay: cell-based or functional assay
# Recombinant Human IL-1β [2] = target: Recombinant Human IL-1β (human, UniProt P01584 117-269); assay: cell-based or functional assay
Kd (Recombinant Human IL-1β [1]),koff (Recombinant Human IL-1β [1]),kon (Recombinant Human IL-1β [1]),C-terminal VD IL-17 Neutralization Assay EC50 (Recombinant Human IL-17),N-Terminal VD IL-1β Neutralization Assay EC50 (Recombinant Human IL-1β [2]),Binder
0.076 nM,0.00046 s⁻¹,6.1e+06 M⁻¹ s⁻¹,–,–,"DVD1288 (bispecific antibody, human IgG1, kappa, DVD-Ig, outer AB271, inner AB275, linker set 1; V1 wt hIgG1, V2 kappa; also called DVD1288H; DVD1288L) heavy: not shown light: DTVVTQSPAFLSVTPGEKVTITCITSTDIDVDMNWYQQKPDQPPKLLISQGNTLRPGVPSRFSSSGSGTDFTFTISSLEAEDAATYYCLQSDNLPLTFGQGTKLEIKRTVAAPEIVLTQSPDFQSVTPKEKVTITCRASQNIGSELHWYQQKPDQSPKLLIKYASHSISGVPSRFSGSGSGTDFTLTINGLEAEDAATYYCHQSDTLPHTFGQGTKVDIKRTVAAPSVFIFPPSDEQLKSGTASVVCLLNNFYPREAKVQWKVDNALQSGNSQESVTEQDSKDSTYSLSSTLTLSKADYEKHKVYACEVTHQGLSSPVTKSFNRGEC"
0.086 nM,0.00065 s⁻¹,7.5e+06 M⁻¹ s⁻¹,–,–,"DVD1290 (bispecific antibody, human IgG1, kappa, DVD-Ig, outer AB272, inner AB275, linker set 1; V1 wt hIgG1, V2 kappa; also called DVD1290H; DVD1290L) heavy: not shown light: ETTVTQSPSSLSASVGDRVTITCITSTDIDVDMNWYQQKPGKPPKLLISQGNTLRPGVPSRFSSSGSGTDFTFTISSLQPEDFATYYCLQSDNLPLTFGQGTKLEIKRTVAAPEIVLTQSPDFQSVTPKEKVTITCRASQNIGSELHWYQQKPDQSPKLLIKYASHSISGVPSRFSGSGSGTDFTLTINGLEAEDAATYYCHQSDTLPHTFGQGTKVDIKRTVAAPSVFIFPPSDEQLKSGTASVVCLLNNFYPREAKVQWKVDNALQSGNSQESVTEQDSKDSTYSLSSTLTLSKADYEKHKVYACEVTHQGLSSPVTKSFNRGEC"
0.07 nM,0.0005 s⁻¹,7.2e+06 M⁻¹ s⁻¹,–,–,"DVD1286 (bispecific antibody, human IgG1, kappa, DVD-Ig, outer AB270, inner AB275, linker set 1; V1 wt hIgG1, V2 kappa; also called DVD1286H; DVD1286L) heavy: not shown light: DTQVTQSPSSLSASVGDRVTITCITSTDIDVDMNWYQQKPGKPPKLLISQGNTLRPGVPSRFSSSGSGTDFTFTISSLQPEDFATYYCLQSDNLPLTFGQGTKLEIKRTVAAPEIVLTQSPDFQSVTPKEKVTITCRASQNIGSELHWYQQKPDQSPKLLIKYASHSISGVPSRFSGSGSGTDFTLTINGLEAEDAATYYCHQSDTLPHTFGQGTKVDIKRTVAAPSVFIFPPSDEQLKSGTASVVCLLNNFYPREAKVQWKVDNALQSGNSQESVTEQDSKDSTYSLSSTLTLSKADYEKHKVYACEVTHQGLSSPVTKSFNRGEC"

# Second part, the binder before the results:
Binder,Kd (Recombinant Human IL-1β [1]),koff (Recombinant Human IL-1β [1]),kon (Recombinant Human IL-1β [1]),C-terminal VD IL-17 Neutralization Assay EC50 (Recombinant Human IL-17),N-Terminal VD IL-1β Neutralization Assay EC50 (Recombinant Human IL-1β [2])
"DVD1278 (bispecific antibody, human IgG1, kappa, DVD-Ig, outer AB271, inner AB274, linker set 1; V1 wt hIgG1, V2 kappa; also called DVD1278H; DVD1278L) heavy: not shown light: DTVVTQSPAFLSVTPGEKVTITCITSTDIDVDMNWYQQKPDQPPKLLISQGNTLRPGVPSRFSSSGSGTDFTFTISSLEAEDAATYYCLQSDNLPLTFGQGTKLEIKRTVAAPEIVLTQSPDFQSVTPKEKVTITCRASQDIGSELHWYQQKPDQPPKLLIKYASHSTSGVPSRFSGSGSGTDFTLTINGLEAEDAGTYYCHQTDSLPYTFGPGTKVDIKRTVAAPSVFIFPPSDEQLKSGTASVVCLLNNFYPREAKVQWKVDNALQSGNSQESVTEQDSKDSTYSLSSTLTLSKADYEKHKVYACEVTHQGLSSPVTKSFNRGEC",0.069 nM,0.00047 s⁻¹,6.9e+06 M⁻¹ s⁻¹,–,–
"DVD1262 (bispecific antibody, human IgG1, kappa) heavy: not shown light: DIQMTQSPSSLSASVGDRVTITCRASGNIHNYLTWYQQTPGKAPKLLIYNAKTLADGVPSRFSGSGSGTDYTFTISSLQPEDIATYYCQHFWSIPYTFGQGTKLQITRTVAAPDIQMTQSPSSLSASVGDRVTITCRASSGIISYIDWFQQKPGKAPKRLIYATFDLASGVPSRFSGSGSGTDYTLTISSLQPEDFATYYCRQVGSYPETFGQGTKLEIKRTVAAPSVFIFPPSDEQLKSGTASVVCLLNNFYPREAKVQWKVDNALQSGNSQESVTEQDSKDSTYSLSSTLTLSKADYEKHKVYACEVTHQGLSSPVTKSFNRGEC",–,–,–,0.0162 nM,0.0164 nM
"DVD1276 (bispecific antibody, human IgG1, kappa, DVD-Ig, outer AB270, inner AB274, linker set 1; V1 wt hIgG1, V2 kappa; also called DVD1276H; DVD1276L) heavy: not shown light: DTQVTQSPSSLSASVGDRVTITCITSTDIDVDMNWYQQKPGKPPKLLISQGNTLRPGVPSRFSSSGSGTDFTFTISSLQPEDFATYYCLQSDNLPLTFGQGTKLEIKRTVAAPEIVLTQSPDFQSVTPKEKVTITCRASQDIGSELHWYQQKPDQPPKLLIKYASHSTSGVPSRFSGSGSGTDFTLTINGLEAEDAGTYYCHQTDSLPYTFGPGTKVDIKRTVAAPSVFIFPPSDEQLKSGTASVVCLLNNFYPREAKVQWKVDNALQSGNSQESVTEQDSKDSTYSLSSTLTLSKADYEKHKVYACEVTHQGLSSPVTKSFNRGEC",0.082 nM,0.00045 s⁻¹,5.6e+06 M⁻¹ s⁻¹,–,–
"DVD1280 (bispecific antibody, human IgG1, kappa, DVD-Ig, outer AB272, inner AB274, linker set 1; V1 wt hIgG1, V2 kappa; also called DVD1280H; DVD1280L) heavy: not shown light: ETTVTQSPSSLSASVGDRVTITCITSTDIDVDMNWYQQKPGKPPKLLISQGNTLRPGVPSRFSSSGSGTDFTFTISSLQPEDFATYYCLQSDNLPLTFGQGTKLEIKRTVAAPEIVLTQSPDFQSVTPKEKVTITCRASQDIGSELHWYQQKPDQPPKLLIKYASHSTSGVPSRFSGSGSGTDFTLTINGLEAEDAGTYYCHQTDSLPYTFGPGTKVDIKRTVAAPSVFIFPPSDEQLKSGTASVVCLLNNFYPREAKVQWKVDNALQSGNSQESVTEQDSKDSTYSLSSTLTLSKADYEKHKVYACEVTHQGLSSPVTKSFNRGEC",0.08 nM,0.00063 s⁻¹,7.9e+06 M⁻¹ s⁻¹,–,–
